For the assay, the target named is OX40-6His Protein-196AAs-21.82 kDa (recombinant canine OX40) (canine). The experiment in a line: phage ELISA, OX-40 coated (control).
Chain of OX40-6His Protein-196AAs-21.82 kDa (recombinant canine OX40) (canine) (chain, as listed by the source limits assumed): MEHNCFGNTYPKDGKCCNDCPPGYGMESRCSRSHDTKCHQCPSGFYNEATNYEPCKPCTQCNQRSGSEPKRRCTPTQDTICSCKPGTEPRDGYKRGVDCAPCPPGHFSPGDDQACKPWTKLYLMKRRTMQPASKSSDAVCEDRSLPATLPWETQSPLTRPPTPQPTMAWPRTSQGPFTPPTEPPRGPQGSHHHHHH

For M13KO7, the ELISA signal, Coating: OX-40 stood at 0.35.

These data come from patent US20220332837A1.
